Source: patent US20130156786A1 (Sanofi, published 2013)
“And” between values parts separate entries of the source, which are not always exact repeats. Equal values may be shown once.

Legend:
[1] = target: T1, α2-I-domain GST aa 140-339 (human, UniProt P17301 169-368); experiment: solid phase assay: inhibition of biotinylated collagen binding to coated α2-I-domain
T1 construct: May be the same protein as m4; also called I-domain of integrin α2β1 integrin; not shown: GST
T1 sequence: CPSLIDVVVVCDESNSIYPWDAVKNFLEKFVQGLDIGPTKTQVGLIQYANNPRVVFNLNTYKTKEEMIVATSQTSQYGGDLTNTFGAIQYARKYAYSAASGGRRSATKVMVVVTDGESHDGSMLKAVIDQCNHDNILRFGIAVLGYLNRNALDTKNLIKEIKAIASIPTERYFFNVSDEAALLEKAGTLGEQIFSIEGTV
Experimental: For the Solid Phase Assay, integrin (α₂-I-domain: α₂-I-domain GST aa 140-339 in TBS/5 mM Mn²⁺, 50 μl/well) was immobilized on 96-well plate (Corning Costar, 3690), at room temperature overnight. Then, 25 μl/well of blocking solution (5% BSA (crude) (A7906), 1×TBS) were added and discarded. 200 μl/well of blocking solution were added and left for 3 h at room temperature. After a washing step (3 times with 200 μl/well binding buffer: 1×TBS and 0.1% BSA (A7638) and 2 mM Mn²⁺; TBS: 150 mM NaCl, 25 mM Tris (Fluka 93371) pH7.4), samples were incubated at RT for 3 h stationary with 50 μl of:
After a washing step (3 times with 200 μl/well binding buffer), samples were incubated with 50 μl/well ExtrAvidin Peroxidase (Peroxidase conjugate, Sigma E2886; 1:500 in binding buffer) for 30 min at RT and again washed 4 times with 200 μl/well binding buffer. […]

[2] = target: T2, human α2β1 integrin on human platelets (human, UniProt P17301 30-1181; P05556 21-798); experiment: cell-based or functional assay
[3] = target: T3, human integrin α2 I domain, recombinantly expressed in E. coli (human, UniProt P17301 169-368, limits assumed); experiment: SPR Biacore 3000, antibody immobilised by amine coupling, I-domain as analyte, 1:1 model with mass transfer
T3 construct: Analyte of the Biacore experiments; also called integrin α2β1 I-domain; integrin I-domain
T3 sequence: T1 sequence
Text: (§1) Surface plasmon resonance technology on a Biacore 3000 (GE Healthcare) was used for detailed kinetic characterisation of the purified antibody and the corresponding Fab fragment. A direct binding assay was used with the anti-integrin antibody or the Fab fragment as the ligand and the integrin α2β1 I-domain as analyte. Typically, 600 RU of antibody or Fab fragment were immobilised on a research grade CMS chip by amine reactive coupling, resulting in an Rmax of 80 and 140 RU for the I domain bound to the antibody and the Fab fragment, respectively. Binding kinetics were measured over a concentration range between 0.4 to 28 nM I-domain in HBS-P buffer supplemented with 4 mM MgCl2 (10 mM HEPES pH 7.4, 150 mM NaCl, 0.005% Surfactant P20) at a flow rate of 30 μl/min. Chip surfaces were regenerated with 10 mM glycine pH 2.2. Kinetic parameters were analysed and calculated in the BIAevaluation program package (version 4.1) using a flow cell without immobilised anti-integrin antibody or Fab fragment as reference. A 1:1 binding model with mass transfer was applied for a global fit of the data for curves corresponding to analyte concentrations from 0.4-28 nM […].

[4] = target: T4, recombinantly expressed integrin α2β1 (human, UniProt P17301 30-1132; P05556 21-728, limits assumed); experiment: solid phase assay: inhibition of biotinylated collagen binding to coated α2β1
T4 construct: The assay paragraph gives neither species nor construct limits; also called a2β1; recombinant α2 integrin

[5] = target: T4, recombinantly expressed integrin α2β1; experiment: solid phase assay: inhibition of biotinylated collagen binding to coated α2β1, 4% HSA
[6] = target: T3, human integrin α2 I domain, …; experiment: SPR Biacore 3000, Fab immobilised by amine coupling, I-domain as analyte, 1:1 model with mass transfer
Text: as §1

[7] = target: T2, human α2β1 integrin on human platelets; experiment: cell-based or functional assay; remark: listed apart in the source
[8] = target: T2, human α2β1 integrin on human platelets; experiment: cell-based or functional assay; remark: listed apart in the source
[9] = target: T5, α2 integrin on HUVEC cells; experiment: MesoScale electrochemiluminescence binding to HUVEC cells coated on plates, serial dilutions of the mAb
T5 construct: The sheet names no target; also called HUVEC cells (promocell C12200, lot 6062203)
Experimental: (§2) To further assess the binding properties of the anti-α2 integrin mAb, a cell based assay with HUVEC cells (promocell C12200, lot 6062203) was performed. Cells were coated onto high binding plates (Meso Scale Discovery (MSD), L15XB-3) in PBS (10.000 cells/well) and incubated for 2 hrs at room temperature. Then the plates were emptied, washed twice with PBS and blocked with blocking solution (MSD, R93BA-4) for 90 min. After emptying and washing the plates again as described above, serial dilutions of anti α2-mAb were added and incubated with the cells for 1 h at room temperature. Following another washing step as above Read buffer T without surfactant (Meso scale Discovery, R92TD-2) was added. Electrochemilumenescence was read in a suitable device (Meso scale Discovery, Sector imager). Scatchard plot analysis was used to determine KD of the tested mAbs (see FIG. 1).

[10] = target: T5, α2 integrin on HUVEC cells; experiment: Scatchard plot (B/F against B (RLU)) of MesoScale electrochemiluminescence binding to HUVEC cells coated on plates; drawn table: SD 0.01291, CV(%) 6.0, 95%CI [0.1899; 0.2425]
Experimental: as §2

[11] = target: T6, mouse α2β1 integrin (whole blood) (mouse, UniProt Q62469 27-1178; P09055 21-798); experiment: FACS on whole blood, PE-coupled goat anti-mouse IgG
T6 construct: whole, on cells

[12] = target: dog α2β1 integrin (whole blood) (dog); experiment: as above
[13] = target: T7, rat α2β1 integrin (whole blood) (rat, UniProt A0A0G2K470 27-1178; P49134 21-798); experiment: as above
T7 construct: whole, on cells

[14] = target: rabbit α2β1 integrin (whole blood) (rabbit, UniProt G1T180 31-1185; A0A5F9C3C4 21-798); experiment: as above

T2 sequence (P17301 30-1181 limits assumed, chain 1 of 2): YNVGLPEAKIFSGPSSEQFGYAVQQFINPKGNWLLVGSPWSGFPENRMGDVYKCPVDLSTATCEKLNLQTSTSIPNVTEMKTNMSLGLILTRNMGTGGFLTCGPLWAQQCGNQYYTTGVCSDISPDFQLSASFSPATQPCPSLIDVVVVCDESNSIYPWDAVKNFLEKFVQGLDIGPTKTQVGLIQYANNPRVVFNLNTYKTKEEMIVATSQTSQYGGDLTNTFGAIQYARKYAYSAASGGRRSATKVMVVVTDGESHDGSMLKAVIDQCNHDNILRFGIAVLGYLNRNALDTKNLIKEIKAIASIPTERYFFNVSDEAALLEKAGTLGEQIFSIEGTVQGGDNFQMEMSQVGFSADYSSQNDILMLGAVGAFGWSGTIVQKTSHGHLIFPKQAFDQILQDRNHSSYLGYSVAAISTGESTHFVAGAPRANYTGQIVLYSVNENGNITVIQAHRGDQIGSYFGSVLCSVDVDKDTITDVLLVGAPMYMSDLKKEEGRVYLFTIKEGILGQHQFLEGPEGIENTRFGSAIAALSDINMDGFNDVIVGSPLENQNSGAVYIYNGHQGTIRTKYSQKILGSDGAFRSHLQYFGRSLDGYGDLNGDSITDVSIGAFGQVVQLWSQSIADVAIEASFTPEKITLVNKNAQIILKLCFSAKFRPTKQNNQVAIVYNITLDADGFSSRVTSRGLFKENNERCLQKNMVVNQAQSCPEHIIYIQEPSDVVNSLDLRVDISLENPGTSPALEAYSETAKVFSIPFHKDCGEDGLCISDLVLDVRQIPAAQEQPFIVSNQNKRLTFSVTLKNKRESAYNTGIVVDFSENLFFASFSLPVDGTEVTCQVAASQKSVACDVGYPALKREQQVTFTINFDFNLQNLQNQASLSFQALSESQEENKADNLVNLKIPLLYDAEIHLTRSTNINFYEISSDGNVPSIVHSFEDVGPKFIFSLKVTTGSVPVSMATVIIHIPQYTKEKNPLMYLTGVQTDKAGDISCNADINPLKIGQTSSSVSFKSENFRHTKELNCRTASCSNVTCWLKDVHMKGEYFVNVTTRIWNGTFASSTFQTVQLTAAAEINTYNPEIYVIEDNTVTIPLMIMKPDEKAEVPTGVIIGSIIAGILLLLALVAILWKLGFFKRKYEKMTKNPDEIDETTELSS
T2 sequence (P05556 21-798 limits assumed, chain 2 of 2): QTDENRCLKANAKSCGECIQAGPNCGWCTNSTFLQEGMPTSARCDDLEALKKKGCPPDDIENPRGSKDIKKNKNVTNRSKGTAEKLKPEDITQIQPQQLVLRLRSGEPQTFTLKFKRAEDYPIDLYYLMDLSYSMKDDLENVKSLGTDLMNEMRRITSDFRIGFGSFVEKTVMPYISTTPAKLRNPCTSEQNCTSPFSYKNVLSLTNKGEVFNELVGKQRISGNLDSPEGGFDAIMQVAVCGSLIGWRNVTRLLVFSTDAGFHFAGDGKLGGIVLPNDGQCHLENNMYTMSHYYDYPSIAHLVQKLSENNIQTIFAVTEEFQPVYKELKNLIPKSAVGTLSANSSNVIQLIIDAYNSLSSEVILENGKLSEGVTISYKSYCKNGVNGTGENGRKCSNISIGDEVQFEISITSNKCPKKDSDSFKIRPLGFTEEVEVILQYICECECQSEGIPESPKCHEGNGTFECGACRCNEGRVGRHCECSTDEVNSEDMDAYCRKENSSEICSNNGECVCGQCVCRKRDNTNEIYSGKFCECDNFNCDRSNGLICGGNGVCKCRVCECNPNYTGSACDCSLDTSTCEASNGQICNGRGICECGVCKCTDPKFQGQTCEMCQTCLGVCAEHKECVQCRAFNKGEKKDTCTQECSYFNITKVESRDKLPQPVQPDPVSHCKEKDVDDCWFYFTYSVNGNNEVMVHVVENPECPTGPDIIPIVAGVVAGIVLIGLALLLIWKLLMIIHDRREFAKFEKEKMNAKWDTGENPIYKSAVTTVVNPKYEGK
T4 sequence (P17301 30-1132 limits assumed, chain 1 of 2): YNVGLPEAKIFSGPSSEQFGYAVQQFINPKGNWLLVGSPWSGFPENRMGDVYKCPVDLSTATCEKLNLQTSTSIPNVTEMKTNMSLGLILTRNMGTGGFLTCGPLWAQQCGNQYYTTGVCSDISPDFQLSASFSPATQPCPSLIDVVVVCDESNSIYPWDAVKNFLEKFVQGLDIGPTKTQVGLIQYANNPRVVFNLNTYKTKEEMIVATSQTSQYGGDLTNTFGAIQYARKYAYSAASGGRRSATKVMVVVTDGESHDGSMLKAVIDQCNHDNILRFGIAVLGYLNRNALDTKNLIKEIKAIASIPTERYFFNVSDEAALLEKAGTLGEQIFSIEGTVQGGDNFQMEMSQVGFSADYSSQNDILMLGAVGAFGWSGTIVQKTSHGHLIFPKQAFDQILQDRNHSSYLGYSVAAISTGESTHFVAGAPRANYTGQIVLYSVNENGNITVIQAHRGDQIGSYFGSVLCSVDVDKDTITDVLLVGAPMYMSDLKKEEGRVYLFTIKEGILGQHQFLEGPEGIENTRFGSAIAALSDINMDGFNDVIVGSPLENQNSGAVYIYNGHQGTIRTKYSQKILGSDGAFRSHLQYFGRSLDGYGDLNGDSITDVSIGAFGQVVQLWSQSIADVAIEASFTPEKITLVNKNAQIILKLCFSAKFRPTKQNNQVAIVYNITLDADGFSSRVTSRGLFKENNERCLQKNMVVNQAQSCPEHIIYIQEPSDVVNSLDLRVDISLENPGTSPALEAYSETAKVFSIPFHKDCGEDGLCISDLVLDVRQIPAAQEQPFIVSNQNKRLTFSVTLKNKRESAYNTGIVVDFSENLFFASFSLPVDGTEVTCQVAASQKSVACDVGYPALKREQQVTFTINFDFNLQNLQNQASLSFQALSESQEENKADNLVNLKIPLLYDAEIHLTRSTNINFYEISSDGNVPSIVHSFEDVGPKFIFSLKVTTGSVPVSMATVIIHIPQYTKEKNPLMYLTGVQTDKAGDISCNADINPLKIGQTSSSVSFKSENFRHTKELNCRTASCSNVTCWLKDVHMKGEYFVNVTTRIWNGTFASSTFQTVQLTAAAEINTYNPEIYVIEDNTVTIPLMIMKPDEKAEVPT
T4 sequence (P05556 21-728 limits assumed, chain 2 of 2): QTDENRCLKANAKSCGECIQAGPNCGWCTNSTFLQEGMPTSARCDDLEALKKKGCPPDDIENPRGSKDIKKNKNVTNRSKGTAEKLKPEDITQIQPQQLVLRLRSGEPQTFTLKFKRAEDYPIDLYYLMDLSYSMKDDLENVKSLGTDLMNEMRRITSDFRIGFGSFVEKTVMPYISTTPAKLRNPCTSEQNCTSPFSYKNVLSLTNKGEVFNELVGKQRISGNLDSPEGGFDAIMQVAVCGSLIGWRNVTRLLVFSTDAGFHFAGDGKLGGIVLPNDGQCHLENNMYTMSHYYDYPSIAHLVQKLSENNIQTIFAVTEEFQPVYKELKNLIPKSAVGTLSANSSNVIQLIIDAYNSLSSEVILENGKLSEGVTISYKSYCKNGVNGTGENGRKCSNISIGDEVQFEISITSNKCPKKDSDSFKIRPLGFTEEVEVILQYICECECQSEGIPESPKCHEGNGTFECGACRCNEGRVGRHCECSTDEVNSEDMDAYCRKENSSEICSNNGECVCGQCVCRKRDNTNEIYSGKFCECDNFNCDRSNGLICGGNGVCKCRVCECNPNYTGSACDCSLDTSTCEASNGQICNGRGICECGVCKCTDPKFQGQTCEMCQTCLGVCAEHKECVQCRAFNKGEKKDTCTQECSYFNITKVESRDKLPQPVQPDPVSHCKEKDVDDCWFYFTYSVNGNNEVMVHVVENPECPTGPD
T5 sequence (alpha, as listed by the source limits assumed): as the sequence (P17301 30-1181 limits assumed, chain 1 of 2) above

B1: chimeric anti α2-integrin-IgG4 (murine variable domains on human IGKC and mutated human IGHG4) (antibody)
heavy: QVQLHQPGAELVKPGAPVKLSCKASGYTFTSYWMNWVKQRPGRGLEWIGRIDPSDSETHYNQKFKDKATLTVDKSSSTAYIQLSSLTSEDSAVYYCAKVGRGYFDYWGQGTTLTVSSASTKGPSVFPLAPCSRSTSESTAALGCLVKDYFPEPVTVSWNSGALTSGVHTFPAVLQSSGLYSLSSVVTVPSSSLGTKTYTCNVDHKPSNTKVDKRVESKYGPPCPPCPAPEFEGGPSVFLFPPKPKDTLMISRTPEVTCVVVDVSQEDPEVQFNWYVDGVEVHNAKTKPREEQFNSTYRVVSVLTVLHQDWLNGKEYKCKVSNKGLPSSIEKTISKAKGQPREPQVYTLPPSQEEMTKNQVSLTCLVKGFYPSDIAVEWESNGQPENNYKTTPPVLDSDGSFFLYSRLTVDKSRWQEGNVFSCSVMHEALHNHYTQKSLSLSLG
light: NIVLTQSPASLAVSLGQRATISCRASESVESYGNSFIYWYQQKPGQAPKLLIYLASNLASGVPARFSGSGSRTDFTLTIDPVEADDAATYYCQQNNEDPYTFGGGTKLEIKRTVAAPSVFIFPPSDEQLKSGTASVVCLLNNFYPREAKVQWKVDNALQSGNSQESVTEQDSKDSTYSLSSTLTLSKADYEKHKVYACEVTHQGLSSPVTKSFNRGEC
notes: Expressed in HEK 293-FS; also called IgG4 mAb; Antibody
IC50 [1]: 0.2 µg/mL and 1.5 nM | Static human platelet adhesion to collagen (PRP), IC50 [2]: 0.3 µg/mL and 6.7 nM | Static human platelet adhesion to collagen (washed plt), IC50 [2]: 0.017 µg/mL and 0.1 nM | Kd [3]: 1.35 nM | koff [3]: 0.00117 s⁻¹ | kon [3]: 860000 M⁻¹ s⁻¹ | IC50 [4]: 0.05 µg/mL and 0.3 nM

B2: chimeric anti α2-integrin-Fab (6xHis tagged CH1 of human IGHG1) (Fab, V domains shown)
VH: QVQLHQPGAELVKPGAPVKLSCKASGYTFTSYWMNWVKQRPGRGLEWIGRIDPSDSETHYNQKFKDKATLTVDKSSSTAYIQLSSLTSEDSAVYYCAKVGRGYFDYWGQGTTLTVSS
VL: NIVLTQSPASLAVSLGQRATISCRASESVESYGNSFIYWYQQKPGQAPKLLIYLASNLASGVPARFSGSGSRTDFTLTIDPVEADDAATYYCQQNNEDPYTFGGGTKLEIKR
notes: also called Fab fragment; Fab frament
Human platelet adhesion to collagen under shear (whole blood) 3000 s-1, IC50 [2]: 1.3 nM and 0.06 µg/mL | Static human platelet adhesion to collagen (PRP), IC50 [2]: 0.3 µg/mL and 6.7 nM | Static human platelet adhesion to collagen (washed plt), IC50 [2]: 0.04 µg/mL and 0.8 nM | IC50 [5]: 0.4 µg/mL and 8.2 nM | Kd [6]: 0.84 nM | koff [6]: 0.00083 s⁻¹ | kon [6]: 990000 M⁻¹ s⁻¹ | IC50 [4]: 0.2 µg/mL and 4.2 nM

B3: TMC2206, humanized hIgG4 anti-alpha 2 integrin antibody (comparator) (antibody, V domains shown)
VH: QVQLQESGPGLVKPSETLSLTCTVSGFSLTNYGIHWIRQPPGKGLEWLGVIWARGFTNYNSALMSRLTISKDNSKNQVSLKLSSVTAADTAVYYCARANDGVYYAMDYWGQGTLVTVSS
VL: DFVMTQSPAFLSVTPGEKVTITCSAQSSVNYIHWYQQKPDQAPKKLIYDTSKLASGVPSRFSGSGSGTDYTFTISSLEAEDAATYYCQQWTTNPLTFGQGTKVEIKR
Inhibition of binding of platelets to collagen in platelet rich plasma, MW IC50 [7]: 0.11 µg/mL | Inhibition of binding of washed platelets to collagen, IC50 [8]: 0.023 µg/mL

B4: anti-α2 integrin mAb purified from hybridoma supernatant (murine, mCk, mIgG2a) (antibody)
heavy: QVQLHQPGAELVKPGAPVKLSCKASGYTFTSYWMNWVKQRPGRGLEWIGRIDPSDSETHYNQKFKDKATLTVDKSSSTAYIQLSSLTSEDSAVYYCAKVGRGYFDYWGQGTTLTVSSAKTTAPSVYPLAPVCGDTTGSSVTLGCLVKGYFPEPVTLTWNSGSLSSGVHTFPAVLQSDLYTLSSSVTVTSSTWPSQSITCNVAHPASSTKVDKKIEPRGPTIKPCPPCKCPAPNLLGGPSVFIFPPKIKDVLMISLSPIVTCVVVDVSEDDPDVQISWFVNNVEVHTAQTQTHREDYNSTLRVVSALPIQHQDWMSGKEFKCKVNNKDLPAPIERTISKPKGSVRAPQVYVLPPPEEEMTKKQVTLTCMVTDFMPEDIYVEWTNNGKTELNYKNTEPVLDSDGSYFMYSKLRVEKKNWVERNSYSCSVVHEGLHNHHTTKSFSRTPGK
light: NIVLTQSPASLAVSLGQRATISCRASESVESYGNSFIYWYQQKPGQAPKLLIYLASNLASGVPARFSGSGSRTDFTLTIDPVEADDAATYYCQQNNEDPYTFGGGTKLEIKRADAAPTVSIFPPSSEQLTSGGASVVCFLNNFYPKDINVKWKIDGSERQNGVLNSWTDQDSKDSTYSMSSTLTLTKDEYERHNSYTCEATHKTSTSPIVKSFNRNEC
notes: also called α2-integrin mAb from hybridoma; α2 mAb from hybridoma supernatant
EC50 (read off the curve) [9]: ~0.2 nM | Kd [10]: 0.215 nM | binding result [11]: no binding | binding result [12]: no binding | binding result [13]: no binding | binding result [14]: no binding
